Source: US20190127473A1 (Dana-Farber, published 2019)

How the values were obtained:
human galectin-1 (Gal1) = biological target: T1, human galectin-1 (Gal1) (human, UniProt P09382 2-135); test: SPR (BIAcore 3000, 25 C, HBS-EP), 8F4 captured by anti-mouse antibody on CM-5 chip, galectin as analyte, 1:1 Langmuir fit; rhGal1 as analyte; ~250 RU of 8F4 captured
T1 construct: Used as recombinant protein bought from R&D Systems (SPR) and as endogenous protein in L428 cell lysate (Western blot); also called hGal1; rhGal1
T1 sequence (P09382 2-135 limits assumed): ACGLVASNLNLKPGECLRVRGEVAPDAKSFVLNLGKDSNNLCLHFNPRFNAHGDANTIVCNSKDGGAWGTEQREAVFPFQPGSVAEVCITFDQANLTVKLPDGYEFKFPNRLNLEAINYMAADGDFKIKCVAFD
Method: (§1) Surface Plasmon Resonance (SPR) analyses (also called Biomolecular Interaction Analysis, BlAcore) were also conducted in order to further define the biophysical properties (e.g., kₒₙ, koff, koffkₒₙ (KD) of Gal1's interaction with the 8F4 mAb. SPR experiments were performed at 25° C. in the standard BlAcore running buffer HBS-EP on a BlAcore 3000 Instrument (BlAcore). In brief, anti-mouse antibody was first captured on the CM-5 sensor chip (GE HealthCare). Afterwards, approximately 250 response units (RU) of the 8F4 anti-Gal1 mAb were immobilized (with exception of ˜350 RU for rmGal1 assay) and followed by various dilutions of recombinant galectin (human galetin-1, 2, 3, 4, 7, 8, 9 or murine galectin-1 (mGal1), from R&D Systems) to assess the binding of galectin to 8F4. All data are shown after subtraction from a channel loaded with buffer alone. Data analysis to obtain the binding curves shown and equilibrium dissociation constant (KD) was performed using BlAevaluation 3.1 (BlAcore) by globally fitting the data to a simple 1:1 (Langmuir) binding model.

[1] = biological target: T2, recombinant human galectin-7 (human, UniProt P47929 2-136, limits assumed); test: SPR (BIAcore 3000), 8F4 captured by anti-mouse antibody on CM-5 chip, galectin as analyte
T2 construct: Bought; also called Gal7; Ga17 (so in the source)
T2 sequence (P47929 2-136 limits assumed): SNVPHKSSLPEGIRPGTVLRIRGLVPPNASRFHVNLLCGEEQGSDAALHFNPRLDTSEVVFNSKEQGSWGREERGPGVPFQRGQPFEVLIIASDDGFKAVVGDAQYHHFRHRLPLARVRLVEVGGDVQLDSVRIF
Method: as §1

[2] = biological target: T3, recombinant human galectin-3 (human, UniProt P17931 2-250); test: as above
T3 construct: Bought; also called Gal3; Ga13 (so in the source)
T3 sequence (P17931 2-250 limits assumed): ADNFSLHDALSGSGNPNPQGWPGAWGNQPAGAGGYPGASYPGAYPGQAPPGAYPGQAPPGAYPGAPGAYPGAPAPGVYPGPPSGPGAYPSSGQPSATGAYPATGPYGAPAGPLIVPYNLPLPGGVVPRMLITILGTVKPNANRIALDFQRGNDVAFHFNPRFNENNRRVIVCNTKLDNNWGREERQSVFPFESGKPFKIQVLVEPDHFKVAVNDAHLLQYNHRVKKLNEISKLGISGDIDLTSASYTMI
Method: as §1

[3] = biological target: T4, recombinant human galectin-9 (human, UniProt O00182-2 2-323, limits assumed); test: as above
T4 construct: Bought; also called Gal9; Ga19 (so in the source)
T4 sequence (O00182 other isoform, or with tags, fused parts or gaps limits assumed): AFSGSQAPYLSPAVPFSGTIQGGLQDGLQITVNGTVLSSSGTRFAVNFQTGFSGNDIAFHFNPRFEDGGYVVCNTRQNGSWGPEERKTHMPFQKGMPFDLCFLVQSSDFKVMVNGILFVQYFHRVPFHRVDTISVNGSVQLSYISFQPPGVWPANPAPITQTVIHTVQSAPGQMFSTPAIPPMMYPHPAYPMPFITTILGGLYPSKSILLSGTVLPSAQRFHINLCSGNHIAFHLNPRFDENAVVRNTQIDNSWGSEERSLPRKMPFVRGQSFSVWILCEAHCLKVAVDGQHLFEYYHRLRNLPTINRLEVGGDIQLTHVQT
Method: as §1

[4] = biological target: T5, recombinant human galectin-8 (human, UniProt O00214 1-317, limits assumed); test: as above
T5 construct: Bought; also called Gal8; Ga18 (so in the source)
T5 sequence (looked up): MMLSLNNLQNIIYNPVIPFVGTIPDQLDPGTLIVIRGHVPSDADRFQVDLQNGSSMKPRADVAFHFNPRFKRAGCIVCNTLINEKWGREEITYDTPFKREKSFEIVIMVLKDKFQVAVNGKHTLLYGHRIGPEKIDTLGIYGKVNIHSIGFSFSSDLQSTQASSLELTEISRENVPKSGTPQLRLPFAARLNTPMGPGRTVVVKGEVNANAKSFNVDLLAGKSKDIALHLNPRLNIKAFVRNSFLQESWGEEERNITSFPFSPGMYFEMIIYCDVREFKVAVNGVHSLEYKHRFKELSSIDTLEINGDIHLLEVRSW
Method: as §1

[5] = biological target: T6, recombinant human galectin-4 (human, UniProt P56470 2-323, limits assumed); test: as above
T6 construct: Bought; also called Gal4; Ga14 (so in the source)
T6 sequence (looked up): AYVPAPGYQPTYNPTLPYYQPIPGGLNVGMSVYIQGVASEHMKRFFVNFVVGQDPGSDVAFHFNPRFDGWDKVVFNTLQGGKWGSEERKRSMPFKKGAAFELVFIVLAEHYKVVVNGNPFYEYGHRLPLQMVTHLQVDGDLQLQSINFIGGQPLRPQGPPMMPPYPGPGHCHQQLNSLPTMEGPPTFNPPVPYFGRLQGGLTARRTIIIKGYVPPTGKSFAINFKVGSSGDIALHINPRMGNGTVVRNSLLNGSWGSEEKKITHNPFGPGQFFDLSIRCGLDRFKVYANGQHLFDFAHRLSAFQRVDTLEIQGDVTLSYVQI
Method: as §1

[6] = biological target: T7, recombinant human galectin-2 (human, UniProt P05162 2-132, limits assumed); test: as above
T7 construct: Bought; also called Gal2; Ga12 (so in the source)
T7 sequence (looked up): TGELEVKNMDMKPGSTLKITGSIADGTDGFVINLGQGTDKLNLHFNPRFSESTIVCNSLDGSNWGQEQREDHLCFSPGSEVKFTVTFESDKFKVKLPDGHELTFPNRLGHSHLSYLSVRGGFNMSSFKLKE
Method: as §1

mouse galectin-1 (Gal1) = biological target: T8, mouse galectin-1 (Gal1) (mouse, UniProt P16045 2-135); test: SPR (BIAcore 3000, 25 C, HBS-EP), 8F4 captured by anti-mouse antibody on CM-5 chip, galectin as analyte, 1:1 Langmuir fit; rmGal1 as analyte; ~350 RU of 8F4 captured
T8 construct: Used as recombinant protein bought from R&D Systems (SPR) and as endogenous protein in B16-F10 cell lysate (Western blot); also called mGal1; rmGal1
T8 sequence (P16045 2-135 limits assumed): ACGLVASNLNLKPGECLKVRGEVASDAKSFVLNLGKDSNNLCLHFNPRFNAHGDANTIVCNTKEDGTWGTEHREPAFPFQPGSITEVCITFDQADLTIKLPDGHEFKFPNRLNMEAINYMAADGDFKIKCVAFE
Method: as §1

- Kd (human galectin-1 (Gal1)): 13 nM
- binding result [1]: no binding
- binding result [2]: no binding
- binding result [3]: no binding
- binding result [4]: no binding
- binding result [5]: no binding
- binding result [6]: no binding
- Kd (mouse galectin-1 (Gal1)): 38.5 nM
B1: 8F4 anti-Gal1 monoclonal antibody (antibody, V domains shown)
VH: EVQLQQSVAEFVRPGASVRLSCTASGFNIKNTYIHWVRQRPEQGLEWIGKIDPANGNTKYVPEFQGKATMTADTSSNTVYLHLSSLTSEDTAIYYCVDGYYGWYFAVWGTGTTVTVSS
VL: QAVVTQESALTTSPGETVTLTCRSSTGAVTTSNYANWVQEKPDHLFTGLIGATNNRAPGVPARFSGSLIGDKAVLTITGAQTEDEAIYFCALWYRNHFIFGSGTKVTVL
notes: Hybridoma monoclonal antibody; The light chain is lambda; Hybridoma 8F4.F8.G7 is deposited as ATCC PTA-10535; also called 8F4 mAb; 8F4.F8.G7
